The text below walks through data of PMC3684052 (Molecular cell, 2013).

Experiment in all cases: pull-down
In assay [1] the target is T1, His-ICAP1 (49–200), wild type (human, UniProt O14713 49-200).
T1 sequence (looked up): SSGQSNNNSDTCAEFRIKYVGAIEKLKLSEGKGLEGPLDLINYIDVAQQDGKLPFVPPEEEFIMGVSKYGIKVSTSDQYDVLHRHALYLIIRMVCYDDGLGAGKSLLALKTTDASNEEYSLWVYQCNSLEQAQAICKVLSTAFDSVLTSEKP

For another assay, the target named is T2, His-ICAP1 (49–200) I89R (human, UniProt O14713 49-200, I89R).
T2 sequence (looked up): T1 sequence (looked up) with I41R

For assay [2], the target named is T3, His-ICAP1 (49–200) D93A/Q96A (human, UniProt O14713 49-200, D93A | Q96A).
T3 sequence (looked up): T1 sequence (looked up) with D45A, Q48A

A further assay addresses T4, His-ICAP1 (49–200) C184D (human, UniProt O14713 49-200, C184D).
T4 sequence (looked up): T1 sequence (looked up) with C136D

The target in assay [3] is T5, His-ICAP1 (49–200) L135A/I138A/I139A (human, UniProt O14713 49-200, L135A | I138A | I139A).
T5 sequence (looked up): T1 sequence (looked up) with L87A, I90A, I91A

Where a chain is given by its changes, count along the chain named. Names and notes keep the numbering of the source. No end group written: not given here.

B1: GST-KRIT1 (residues 170–198) A176D/P182D (domain or fragment, human, UniProt O00522 170-198, looked up)
chain: QSHFIPDLFRPSDLERIKTNVINPAYATE
On to B1, for which, in assay [1], the binding result is recorded as “binds”.

B2: GST-integrin β1 fusion protein (residues 752 to 798), wild type (domain or fragment, UniProt P05556 752-798, looked up)
chain: KLLMIIHDRREFAKFEKEKMNAKWDTGENPIYKSAVTTVVNPKYEGK
modifications: also: GST fusion
For B2, the binding result (with His-ICAP1 (49–200) I89R; in assay [1]; in assay [2]) was “binds” throughout.

B3: GST-KRIT1 (residues 170–198) R179A/R185A (domain or fragment, human, UniProt O00522 170-198, looked up)
chain: QSHFIPALFAPSPLEAIKTNVINPAYATE
On to B3, for which, in assay [1], the binding result is recorded as “binds”.

B4: GST-KRIT1 (residues 170–198) N192A/Y195A (domain or fragment, human, UniProt O00522 170-198, looked up)
chain: QSHFIPALFRPSPLERIKTNVIAPAAATE
For the molecule B4, the binding result in assay [1] is “binds”.

B5: GST-KRIT1 (residues 170–198), wild type (domain or fragment, human, UniProt O00522 170-198, looked up)
chain: QSHFIPALFRPSPLERIKTNVINPAYATE
Take B5: the binding result (with His-ICAP1 (49–200) C184D; in assay [3]; with His-ICAP1 (49–200) I89R; in assay [1]; in assay [2]) was “binds” throughout.
